Measured values: patent US20190091326A1

How the values were obtained:
[1] = biological target: MN V1/V2 scaffold, engineered, gD-tagged, produced in normal 293 HEK cells (herpes simplex virus 1; HIV-1 isolate MN); assay: ELISA; table row MN V1/V2.eng1*, column 293
[2] = biological target: ZM233 V1/V2 scaffold, wildtype, gD-tagged, produced in normal 293 HEK cells (herpes simplex virus 1; HIV-1 isolate ZM233); assay: ELISA; table row ZM233 V1/V2 wt, column 293
[3] = biological target: 108060 I169K/E172V/T161M/N156I/S164G/D167G V1/V2 scaffold, gD-tagged, produced in normal 293 HEK cells (herpes simplex virus 1; HIV-1 isolate 108060); assay: ELISA; table row 108060 V1/V2.eng1*, column 293
[4] = biological target: ZM233 V1/V2 scaffold, engineered, gD-tagged, produced in GnTI- 293 HEK cells (herpes simplex virus 1; HIV-1 isolate ZM233); assay: capture ELISA on 34.1 anti-gD; scaffold made in GnTI- cells
[5] = biological target: 108060 I169K/E172V V1/V2 scaffold, gD-tagged, produced in normal 293 HEK cells (herpes simplex virus 1; HIV-1 isolate 108060); assay: ELISA; table row 108060 V1/V2 I169K/E172V, column 293
[6] = biological target: 108060 I169K/E172V/T161M/N156I/S164P/L165G V1/V2 scaffold, gD-tagged, produced in normal 293 HEK (293F) cells (herpes simplex virus 1; HIV-1 isolate 108060); assay: capture ELISA on 34.1 anti-gD; purified scaffold made in 293F cells
[7] = biological target: 108060 V1/V2 scaffold, mutant, Strep-tag/6x Histidine-tag, expressed in 293F cells (HIV-1 isolate 108060); assay: SPR (Biacore 3000), PG9 captured by anti-human Fc, scaffold flowed, 1:1 Langmuir fit
[8] = biological target: A244 V1/V2 scaffold, engineered, Strep-tag/6x Histidine-tag, produced in normal 293 cells (HIV-1 isolate A244); assay: as above
[9] = biological target: MN V1/V2 scaffold, mutant, Strep-tag/6x Histidine-tag, expressed in 293F cells (HIV-1 isolate MN) (UniProt P05877); assay: as above
[10] = biological target: ZM233 V1/V2 scaffold, engineered, Strep-tag/6x Histidine-tag, expressed in normal 293 cells (HIV-1 isolate ZM233); assay: as above
[11] = biological target: A244 V1/V2 scaffold, engineered, Strep-tag/6x Histidine-tag, produced in normal 293 cells (HIV-1 isolate A244); assay: SPR (Biacore 3000), PG9 captured on anti-human Fc, scaffold flowed, 1:1 Langmuir fit
[12] = biological target: A244 V1/V2 scaffold, wildtype (unmutated), Strep-tag/6x Histidine-tag, expressed in GnTI- cells (HIV-1 isolate A244); assay: as above
[13] = biological target: ZM233 V1/V2 scaffold, engineered, Strep-tag/6x Histidine-tag, expressed in normal 293 cells (HIV-1 isolate ZM233); assay: as above
[14] = biological target: A244 V1/V2 scaffold, wildtype (unmutated), Strep-tag/6x Histidine-tag, expressed in GnTI- cells (HIV-1 isolate A244); assay: SPR (Biacore 3000), PG9 captured by anti-human Fc at about 100 RU, scaffold flowed, 1:1 Langmuir fit

PG9 monoclonal antibody gave an EC50 [1] of 0.0274 µg/mL, an EC50 [2] of 0.077 µg/mL and an EC50 [3] of 0.093 µg/mL. For the same substance, the EC50 [4] was 0.01 µg/mL, the EC50 [5] was > 10 µg/mL and the EC50 [6] was 0.156 µg/mL. For the same substance, the Kd [7] was 74 nM, the Kd [8] was 49 nM and the Kd [9] was 118 nM. It also gave a Kd [10] of 33 nM, a kon [11] of 40000 M⁻¹ s⁻¹ and a kon [12] of 53000 M⁻¹ s⁻¹. The koff [13] was 0.0023 s⁻¹, the kon [13] was 40000 M⁻¹ s⁻¹ and the Kd [14] was 15 nM.
